Data from patent publication US20140328858, “LIN28-MEDIATED CONTROL OF LET-7 BIOGENESIS” (Children's Medical Center Corporation, published 2014).
Where two headings read alike, the source gives them in different places.

Assays:
[1] = test system: immunopurified Flag-Lin28
[2] = target: immunopurified Flag-Lin28; remark: listed apart in the source
Lin28A = target: T1, Lin28A (Homo sapiens, UniProt Q9H9Z2 Q9H9Z2:2-209); assay: EMSA; 50 mM Tris pH 7.5, 100 mM NaCl, 10 mM bME, RT, 0.5 nM RNA; Kd fitted (Hill) but value not in text; conditions: tags: 6xHis N-terminal, E. coli (pET21); label: 5'-end label (EMSA); hairpin
T1 sequence: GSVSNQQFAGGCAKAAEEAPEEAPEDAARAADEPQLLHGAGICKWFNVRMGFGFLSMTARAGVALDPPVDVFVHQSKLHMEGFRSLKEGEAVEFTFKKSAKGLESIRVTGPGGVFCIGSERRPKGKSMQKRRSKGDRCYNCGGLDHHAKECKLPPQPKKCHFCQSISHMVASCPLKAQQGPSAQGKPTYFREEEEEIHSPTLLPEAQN
Protocol: (§1) EMSA was performed with pre-let-7g to analyze the relative binding affinities of the two recombinant proteins. Lin28A and Lin28B have apparent Kds of approximately 0.6 nM and 0.5 nM, respectively (FIG. 7B). Both these estimated Kds are much lower than a previously reported for recombinant mouse Lin28A. This difference is likely due to the omission here of nonspecific yeast tRNA competitor used previously in the binding buffer. Piskounova et al., 2008. […] Collectively, these assays reveal that both Lin28 proteins can directly bind to let-7 precursors with high-affinity in vitro.
(§2) Transformed BL21-CodonPlus® Competent bacteria (Stratagene) were grown to an OD600 nm of 0.4-0.6. Expression was induced 100 μM IPTG for 2-3 hours. Cell pellets were resuspended in cold lysis buffer [20 mM imidazole pH 8.0 in PBS, 0.1% Phenylmethyl sulfonyl fluoride (PMSF)] and sonicated. Cleared lysates were incubated with Ni-NTA beads and after 90 min incubation at 4° C. the beads were washed with 80-column-vol. wash buffer [10 mM Tris (pH 7.8), 50 mM imidazole pH 8.0, 500 mM NaCl, 0.1% PMSF). […] Band intensities of scanned gels were quantified using ImageJ software and used to calculate percentage of probe bound. […]

Lin28B = target: T2, Lin28B (Homo sapiens, UniProt Q6ZN17 Q6ZN17:2-250); assay: as above; conditions: tags: 6xHis N-terminal, E. coli (pET21); label: 5'-end label (EMSA); hairpin
T2 sequence: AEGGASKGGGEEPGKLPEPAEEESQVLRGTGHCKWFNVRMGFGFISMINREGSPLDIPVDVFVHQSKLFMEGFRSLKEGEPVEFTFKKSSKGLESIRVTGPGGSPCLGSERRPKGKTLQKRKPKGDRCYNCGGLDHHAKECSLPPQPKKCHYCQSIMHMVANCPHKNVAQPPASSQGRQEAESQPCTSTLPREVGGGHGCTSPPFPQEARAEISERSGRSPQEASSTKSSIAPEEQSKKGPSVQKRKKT
Protocol: as §1, §2

Q: With “mZcchc11 ΔC2H2 (N-terminal truncation lacking the C2H2 zinc finger)” as the molecule, how does the “in vitro uridylation of synthetic pre-let-7 (incorporation of radiolabeled UTP)” value [1] read?
A: The value was “Loss of the N-terminal C2H2 domain still allowed for basal activity, but this mutant could no longer support Lin28-enhanced uridylation against pre-let-7”.

B1: mZcchc11 C326/329A (full-length) (protein)
chain: MEEPKTSKNENHEPKKNIICEESKAVKIISNQTLKPRNDKSEIGTSSLNRNSSKKTKQNDICIEKTEAKSCKVNAASVPGPKDLGLVHRDQSHCKMKKLPNSPMKAQKGSSQTKLEKTPSLQTKAEKVPKSPNLPVKAEKAPCTTAEATTEKALNSQRKEENTPTSQMKLQKTPRSPLEPENVPSLLLKENVKQTESQQTGKKLTSSFVSMDKRKSEALQGEKSALENSSLSQKQQTQTDNIADSDDSASGIEDTADDLSKMKSEESNKENSSEMDYLENATVIDESALTPEQRLGLKQAEERLERDHIFRLEKRSPEYTNCRYLAKLALIHIENIQGAHKHIKEKRHKKNILEKQEESELRSLPSPSSAHLAALSVAVVELAKEQGITDDDLRIRQDIVEEMSKVIMTFLPECSLRLYGSSLTKFALKSSDVNIDIKFPPKMNHPDLLIQVLGILKKSALYIDVESDFHAKVPVVVCKDRKSALLCRVSAGNDMACLTTDLLAALGKVEPVFTPLVLAFRYWAKLCYIDSQTDGGIPSYCFALMVMFFLQQRKPPLLPCLLGSWIEGFDPKRMDDFQLKGIVEEKFVKWEYNSSSATEKNLIADENKAKADEPKDDTKKTETDNQSNAAKAKHGKSPLTLEAPNQVPLGQLWLELLKFYTLDFALEEYVICVRIQDILTRENKNWPKRRIAIEDPFSVKRNVARSLNSQLVYEYVVERFRAAYRYFACPQKKGGNKSTMDPKKKEKGKLSSKKPVKSDCSATNCCILGESAEKIHMERGQPAKHDETEFTSQRCIVDNDSLLVNELGLANHGQDSSSLSTASGGSDLKQKSAEKQGDLTPSETSLKKELSQCICIGTPDGAESAGTDCRSNLEMDSSHQIVCNNVSATSCNCKATEVTSDLVDEDNLPSQELYYVFDKFILTSGKPPTIVCSICKKDGHSKNDCPEDFRKIDLKPLPPMTNRFREILDLVCKRCFDELSPPCSEQHNREQILIGLEKFIQKEYDEKARLCLFGSSKNGFGFRDSDLDICMTLEGHENAEKLNCKEIIENLAKILKRHPGLRNILPITTAKVPIVKFEHRRSGLEGDISLYNTLAQHNTRMLATYAAIDPRVQYLGYTMKVFAKRCDIGDASRGSLSSYAYILMVLYFLQQRKPPVIPVLQEIFDGKQIPQRMVDGWNAFFFDKTEELKKRLPSLGKNTESLGELWLGLLRFYTEEFDFKEYVISIRQKKLLTTFEKQWTSKCIAIEDPFDLNHNLGAGVSRKMTNFIMKAFINGRKLFGTPFYPLIGREAEYFFDSRVLTDGELAPNDRCCRVCGKIGHYMKDCPKRKRLKKKDSEEEKEGNEEEKDSRDLLDSRDLRCFICGDAGHVRRECPEVKMARQRNSSVAAAQLVRNLVNAQQVAGSAQQQSDQSIRTRQSSECSDSPSYSPQPQPFPQNSPQPSALPPPPSQPGSQPKLGPPQQGGQPPHQVQMPLYNFPQSPPAHYSPMHSMGLLPMHPLQIPAPSWPIHGPMLHSAPGSTPSNIGLNDPSIIFAQPAARPMAIPSPSHDGHWPRTVAPNSLVNNGAVGNSEPRFRGLNPPIPWEHAPRHFPLVPASWPYGLHQNFMHQGNPRFQPKPFYAQADRCATRRCRERCPHPPRGNVSE
Q: Which “in vitro uridylation of synthetic pre-let-7 (incorporation of radiolabeled UTP)” value [2] does the source give for B1 here?
A: The value was “this mutant exhibited only basal uridylation activity, as the addition of Lin28 had no impact on its catalysis in vitro”.

B2: pre-let-7g (ssRNA)
RNA: GAGGUAGUAGUUUGUACAGUUUGAGGGUCUAUGAUACCACCCGGUACAGGAGAUAACUGUACAGGCCACUGCCUUGC
Q: What does the source list for B2?
A: binding result (Lin28A): binds; binding result (Lin28B): binds
